Assay results reported in publication PMC4993455.

What was measured:
[1] = target: recombinant human methionine adenosyltransferase α2 (MATα2) (human) (UniProt P31153)
[2] = target: recombinant methionine adenosyltransferase α1 (MATα1) (rat) (UniProt P13444)
Sequence of recombinant methionine adenosyltransferase α1 (MATα1) (rat) (P13444 whole entry): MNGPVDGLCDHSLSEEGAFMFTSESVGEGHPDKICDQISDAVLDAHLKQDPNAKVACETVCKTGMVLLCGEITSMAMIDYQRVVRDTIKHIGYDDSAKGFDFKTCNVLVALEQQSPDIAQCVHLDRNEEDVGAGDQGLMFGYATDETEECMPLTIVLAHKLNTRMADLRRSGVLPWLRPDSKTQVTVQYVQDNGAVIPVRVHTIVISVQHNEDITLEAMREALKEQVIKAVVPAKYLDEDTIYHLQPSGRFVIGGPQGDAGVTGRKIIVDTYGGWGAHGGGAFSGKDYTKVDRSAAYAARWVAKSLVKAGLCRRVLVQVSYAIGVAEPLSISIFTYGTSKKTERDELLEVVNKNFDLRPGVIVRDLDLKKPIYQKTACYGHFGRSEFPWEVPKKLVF

Sequence of recombinant PDRG1 (tag excised) (Q642A0 whole entry): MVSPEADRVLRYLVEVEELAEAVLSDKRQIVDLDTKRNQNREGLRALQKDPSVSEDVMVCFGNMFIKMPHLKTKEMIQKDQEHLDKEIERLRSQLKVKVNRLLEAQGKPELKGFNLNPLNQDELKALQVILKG
Sequence of recombinant human methionine adenosyltransferase α2 (MATα2) (human) (P31153 whole entry): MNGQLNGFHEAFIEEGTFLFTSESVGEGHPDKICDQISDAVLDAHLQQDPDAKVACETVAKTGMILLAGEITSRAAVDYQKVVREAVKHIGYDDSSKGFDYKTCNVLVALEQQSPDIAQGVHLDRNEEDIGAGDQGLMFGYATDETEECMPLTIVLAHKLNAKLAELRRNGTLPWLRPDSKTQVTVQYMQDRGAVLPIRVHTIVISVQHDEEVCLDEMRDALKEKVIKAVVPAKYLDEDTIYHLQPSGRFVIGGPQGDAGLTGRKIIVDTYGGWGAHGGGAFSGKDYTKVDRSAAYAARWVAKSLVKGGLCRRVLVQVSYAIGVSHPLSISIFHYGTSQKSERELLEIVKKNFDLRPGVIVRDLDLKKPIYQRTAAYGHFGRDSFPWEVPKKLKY

- IC50 of PDRG1 on S-adenosylmethionine synthesis by purified recombinant MATα2 homo-oligomers (0.7 μM) [1]: 3.79 µM
- reduction in AdoMet synthesis by MATα2 homo-oligomers (0.7 μM) with increasing concentrations of PDRG1 [1]: < 50%
- IC50 of PDRG1 (0–5.6 μM) on S-adenosylmethionine synthesis by purified recombinant MATα1 homo-oligomers (0.7 μM) [2]: 3.34 µM
- reduction in AdoMet synthesis by MATα1 homo-oligomers (0.7 μM) with increasing concentrations of PDRG1 (0–5.6 μM) [2]: < 50%
Substance: recombinant PDRG1 (tag excised) (from UniProt Q642A0 1-133) (natural protein)
